Test results from patent publication US20200385482A1 (Dana-Farber, published 2020).

What was measured:
[1] = molecular target: T1, human PD-L1 (hPD-L1) expressed on transfected 300.19 cells (human, UniProt Q9NZQ7 19-290); experiment: FACS, hPD-L1 300.19 cells, assay 2, Ab 0.1 ug/ml
T1 construct: whole, on cells; also called B7H1
Protocol: (§1) Binding analysis of huPD-L1 antibodies were performed using PD-L1-expressing cells. […] GF1538 and GF1757 antibodies were used as controls: GF1538 is a humanized Ab against hPD-L1, and GF1757 is a humanized Ab against hPD-L2. The secondary antibody utilized was PE-goat anti-human IgG. All values represent mean fluorescence intensity (GMFI), as detected by FACs analysis.

[2] = molecular target: T1, human PD-L1 (hPD-L1) expressed on …; experiment: competition FACS, hPD-L1 300.19 cells, signal = bound hPD-1-mIgG2a, Ab 0.01 ug/ml
Protocol: (§2) A competitive FACS analysis was performed to characterize the inhibition of hPD1 binding to hPD-L1 by the soluble huPD-L1 antibodies of the present invention. […] In this assay, 50,000 cells expressing hPD-L1 were pre-incubated with the huPD-L1 or control antibodies for 30 minutes at the following concentrations: 10 μg/ml, 1 μg/ml, 0.1 μg/ml and 0.01 μg/ml. […] After 30 minutes of incubation, the cells were washed twice and then analyzed by FACS. MFI values from Table 20 are used to generate a percent inhibition of hPD1 binding with hPD-L1+ cells for FIG. 4.

[3] = molecular target: T1, human PD-L1 (hPD-L1) expressed on …; experiment: competition FACS, hPD-L1 300.19 cells, signal = bound hPD-1-mIgG2a, Ab approx 10 ug/ml
Protocol: as §2

[4] = molecular target: T1, human PD-L1 (hPD-L1) expressed on …; experiment: competition FACS, hPD-L1 300.19 cells, signal = bound hPD-1-mIgG2a, Ab 0.1 ug/ml
Protocol: as §2

[5] = molecular target: T1, human PD-L1 (hPD-L1) expressed on …; experiment: FACS, hPD-L1 300.19 cells, assay 2, Ab 0.01 ug/ml
Protocol: as §1

[6] = molecular target: T1, human PD-L1 (hPD-L1) expressed on …; experiment: FACS, hPD-L1 300.19 cells, assay 1, Ab approx 10 ug/ml
Protocol: as §1

[7] = molecular target: T1, human PD-L1 (hPD-L1) expressed on …; experiment: FACS, hPD-L1 300.19 cells, assay 1, Ab 1 ug/ml
Protocol: as §1

[8] = molecular target: T1, human PD-L1 (hPD-L1) expressed on …; experiment: FACS, hPD-L1 300.19 cells, assay 2, Ab approx 10 ug/ml
Protocol: as §1

[9] = molecular target: T1, human PD-L1 (hPD-L1) expressed on …; experiment: FACS, hPD-L1 300.19 cells, assay 1, Ab 0.1 ug/ml
Protocol: as §1

[10] = molecular target: T1, human PD-L1 (hPD-L1) expressed on …; experiment: FACS, hPD-L1 300.19 cells, assay 2, Ab 1 ug/ml
Protocol: as §1

[11] = molecular target: T1, human PD-L1 (hPD-L1) expressed on …; experiment: FACS, hPD-L1 300.19 cells, assay 1, Ab 0.01 ug/ml
Protocol: as §1

[12] = molecular target: T1, human PD-L1 (hPD-L1) expressed on …; experiment: competition FACS, hPD-L1 300.19 cells, signal = bound hPD-1-mIgG2a, Ab 1 ug/ml
Protocol: as §2

[13] = molecular target: T2, full length PD-L1 in the form of paramagnetic proteoliposomes (PMPL) (human, UniProt Q9NZQ7 19-290); experiment: phage display panning on PD-L1 proteoliposomes
T2 construct: whole, on cells; Full length protein in proteoliposomes, not on cells; the form 'whole' is meant; also called proteoliposome-coupled-PD-L1
T2 sequence (Q9NZQ7 19-290): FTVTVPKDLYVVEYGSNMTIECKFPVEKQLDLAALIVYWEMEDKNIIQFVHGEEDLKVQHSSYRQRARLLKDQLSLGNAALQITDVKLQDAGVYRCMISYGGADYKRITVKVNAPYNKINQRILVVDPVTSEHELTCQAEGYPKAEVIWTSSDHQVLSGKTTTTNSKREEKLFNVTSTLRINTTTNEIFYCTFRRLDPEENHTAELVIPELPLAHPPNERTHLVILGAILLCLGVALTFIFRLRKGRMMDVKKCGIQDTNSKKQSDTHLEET

T1 sequence (Q9NZQ7 19-290): as above

Binder	Cells PE-A Mean [1] [MFI]	Cells PE-A Mean (bound hPD-1-mIgG2a) [2] [MFI]	Cells PE-A Mean (bound hPD-1-mIgG2a) [3] [MFI]	Cells PE-A Mean (bound hPD-1-mIgG2a) [4] [MFI]	Cells PE-A Mean [5] [MFI]	Cells PE-A Mean [6] [MFI]	Cells PE-A Mean [7] [MFI]	Cells PE-A Mean [8] [MFI]	Cells PE-A Mean [9] [MFI]	Cells PE-A Mean [10] [MFI]	Cells PE-A Mean [11] [MFI]	Cells PE-A Mean (bound hPD-1-mIgG2a) [12] [MFI]	binding result [13]
Ab-42 (antibody, V domains shown, also called huPD-L1 Ab # 42; mAb42) VH: QVQLVQSGAEVKKPGSSVKVSCKASGGTFSSYAISWVRQAPGQGLEWMGGIIPIFGTANYAQKFQGRVTITADKSTSTAYMELSSLRSEDTAVYYCARGRQMFGAGIDFWGPGTLVTVSS VL: NFMLTQPHSVSESPGKTVTISCTRSSGSIDSNYVQWYQQRPGSAPTTVIYEDNQRPSGVPDRFSGSIDSSSNSASLTISGLKTEDEADYYCQSYDSNNRHVIFGGGTKLTVL	49400	11800	139	3140	11600	53600	40900	76800	14900	72100	2080	142	–
Ab-50 (antibody, V domains shown, also called huPD-L1 Ab # 50) VH: QVQLVQSGGEVKKPGASVKVSCKASGYTLSSHGITWVRQAPGQGLEWMGWISAHNGHASNAQKVEDRVTMTTDTSTNTAYMELRSLTADDTAVYYCARVHAALYYGMDVWGQGTLVTVSS VL: QSVLTQPPSVSVAPGQTARITCGGNNIGSKGVHWYQQKPGQAPVLVVYDDSDRPSGIPERFSGSNSGNTATLTISRVEAGDEADYYCQVWDSSSDHWVFGGGTKLTVL	28700	12500	207	2800	5200	49400	42100	69600	15100	63400	2690	156	–
Ab-52 (antibody, V domains shown, also called huPD-L1 Ab # 52) VH: QVQLQESGGGVVQPGRSLRLSCSASGFTFSRHGMHWVRQAPGKGLEWVAVISHDGSVKYYADSMKGRFSISRDNSNNTLYLQMDSLRADDTAVYYCARGLSYQVSGWFDPWGQGTLVTVSS VL: NFMLTQPHSVSESPGKTVTISCTRSSGSIASNYVQWYQQRPGSAPTTVIYEDNQRPSGVPDRFSGSIDSSSNSASLTISGLKTEDEADYYCQSYDSTTPSVFGGGTKLTVL	14700	11900	380	6750	2690	28400	21400	37200	5610	34900	1070	2070	–
Ab-55 (antibody, V domains shown, also called huPD-L1 Ab # 55) VH: QVQLVQSGAEVKKPGASVKVSCKASGYTFTSYGISWVRQAPGQGLEWMGWTSPHNGLTAFAQILEGRVTMTTDTSTNTAYMELRNLTFDDTAVYFCAKVHPVFSYALDVWGQGTLVTVSS VL: NFMLTQPHSVSESPGKTVTISCTRSSGSIASNYVQWYQQRPGSSPTTVIYEDNQRPSGVPDRFSGSIDTSSNSASLTISGLKTKDEADYYCQSYDGITVIFGGGTKLTVL	8910	12900	150	9140	1760	24400	9650	42400	2300	26500	543	3620	–
Ab-56 phage-scFv (scFv, V domains shown, not shown: large carriers; small tags and cut ends, also called Ab-56 scFv-phage) VH: EVQLVESGAEVMNPGSSVRVSCRGSGGDFSTYAFSWVRQAPGQGLEWMGRIIPILGIANYAQKFQGRVTITADKSTSTAYMELSSLRSDDTAVYYCARDGYGSDPVLWGQGTLVTVSS VL: NFMLTQPHSVSGSPGKTVTLPCTRSSGSIASHYVQWYQQRPGSAPTTVIYEDNKRPSGVPDRFSGSIDSSSNSASLSISGLKTEDEADYYCQSYDSSNRWVFGGGTKLTVL	–	–	–	–	–	–	–	–	–	–	–	–	binds
Ab-14 (antibody, V domains shown, also called huPD-L1 Ab # 14) VH: QVQLVQSGAEVKKPGASVKVSCKASGYTFTSYGISWVRQAPGQGLEWMGWISAYNGNTNYAQKLQGRVTMTTDTSTSTAYMELRSLRSDDTAVYYCARALPSGTILVGGWFDPWGQGTLVTVSS VL: NFMLTQPHSVSESPGKTVTISCTRSSGNIASNYVQWYQQRPGSAPTTVIYEDNQRPSGVPDRFSGSIDSSSNSASLTISGLKTEDEADYYCQSYDSSNLWVFGGGTKLTVL	17700	15800	696	14900	3700	41500	23300	77900	8100	53200	1650	12000	–
Ab-30 (antibody, V domains shown, also called huPD-L1 Ab # 30) VH: QVQLVQSGGSVVRPGESLRLSCVASGFIFDNYDMSWVRQVPGKGLEWVSRVNWNGGSTTYADAVKGRFTISRDNTKNSLYLQMNNLRAEDTAVYYCVREFVGAYDLWGQGTTVTVSS VL: QSALTQPASVSGSPGQSITISCTGTSSDVGGYNYVSWYQQHPGKAPKLMIYDVSNRPSGVSNRFSGSKSGNTASLTISGLQAEDEADYYCSSYTSSTLPFGGGTKLTVL	39100	11600	244	4780	7720	47600	37500	67300	17500	61200	3510	661	–
Ab-31 (antibody, V domains shown, also called huPD-L1 Ab # 31) VH: QVQLVQSGAEVKKPGATVKVSCKVFGDTFRGLYIHWVRQAPGQGLEWMGGIIPIFGTANYAQKFQGRVTITTDESTSTAYMELSSLRSEDTAVYYCASGLRWGIWGWFDPWGQGTLVTVSS VL: EIVLTQSPATLSLSPGERATLSCRASQSIGNSLAWYQQKPGQAPRLLMYGASSRATGIPDRFSGSGAGTDFTLTISSLEPEDFATYYCQQHTIPTFSFGPGTKVEVK	37700	11900	157	7930	6830	53800	44200	76400	12500	71000	2830	623	–
Ab-46 phage-scFv (scFv, V domains shown, not shown: large carriers; small tags and cut ends, also called Ab-46 scFv-phage) VH: EVQLVESGAEVKKPGSSVKVSCKVSGGTFGTYALNWVRQAPGQGLEWMGRIVPLIGLVNYAHNFEGRISITADKSTGTAYMELSNLRSDDTAVYYCAREVYGGNSDYWGQGTLVTVSS VL: NFMLTQPHSVSESPGKTVTISCTRSSGNIGTNYVQWYQQRPGSAPVALIYEDYRRPSGVPDRFSGSIDSSSNSASLIISGLKPEDEADYYCQSYHSSGWEFGGGTKLTVL	–	–	–	–	–	–	–	–	–	–	–	–	binds
